In US9976134B2, “Thermolysin variants” (Danisco US Inc., priority 2007, dated 2018):

Assay: Stability assay in 25% TIDE 2X detergent with DTPA (residual Abz-AGLA-Nba protease activity)
Format: physicochemical
Settings: 60 min at 32°C; variant residual AGLA activity divided by wild-type residual activity
Procedure: The stability of thermolysin and variants thereof was measured after incubation under defined conditions in the presence of 25% TIDE® 2× detergent. The initial and residual activity was determined.
MTPs were obtained from Costar (type 9017) and from Greiner (black plate, type 655076). Test Method Unstressed Conditions:
First, 20 μl thermolysin containing culture supernatant was diluted with 180 μl MES assay buffer. Then, 20 μl diluted supernatant was diluted further with 180 μl MES assay buffer. Subsequently 10 μl of this dilution was transferred into 190 μl AGLA-substrate solution in a pre-warmed plate (Greiner 655076) at 25° C. Any air bubbles present were blown away and the plate was measured according to the AGLA protease assay protocol described below.
First, 20 μl of culture supernatant was diluted with 180 μl 27.5% TIDE®+detergent solution and placed in the iEMS shaker. The plate covered with a plate seal was incubated for a total of 60 minutes at 32° C. at 900 rpm. In addition, 20 μl of culture supernatant was diluted with 180 μl 27.5% TIDE®−solution and placed in the iEMS shaker. This plate covered with a plate seal was incubated for a total of 180 minutes at 50° C. at 900 rpm.
Subsequently after the respective incubations, 20 μl of either of these solutions were diluted with 180 μl MES assay buffer and 10 μl of this dilution were diluted with 190 μl AGLA-substrate solution in a pre-warmed plate (Greiner 655076) at 25° C.
Fluorescence measurements were taken at excitation of 350 nm and emission of 420 nm. The spectrofluorometer software calculated the reaction rates (=slope) of the increase in fluorescence for each well to a linearly regressed line of (milli-) RFU/min. The ratio of the residual and initial AGLA activity was used to express the 25% TIDE® 2× stability as follows: Percentage of residual activity=[slope of stressed]*100/[slope of unstressed]
For each sample (thermolysin and variants thereof) the performance index was calculated by dividing the residual activity of the variant by the residual activity of thermolysin. The performance index compared the stability of the variant and the standard thermolysin enzyme (e.g., wild type or parental enzyme), determined under the same conditions.
In these experiments, the liberation of Abz-AG by protease cleavage of Abz-AGLA-Nba was monitored by fluorescence spectrometry (Ex. 350/Em. 420). The rate of appearance of Abz-AG was a measure of proteolytic activity.
The Abz-AGLA-Nba assay solution was prepared by adding 1 ml of the Abz-AGLA-Nba stock to 19 ml MES substrate buffer and mixed well for at least 2 minutes. Subsequently the thermolysin or variants thereof containing culture supernatants were diluted with MES assay buffer to a concentration of 1-6 μg protein per ml.
The assay was performed by adding 10 μl of diluted protease solution to each well, followed by the addition of 190 μl Abz-AGLA-Nba assay solution that was pre-equilibrated for at least 15 minutes at 25° C. The solutions were vigorously mixed, and the liberation of Abz-AG by protease cleavage of Abz-AGLA-Nba was monitored by fluorescence spectrometry at 25° C. in kinetic mode with excitation set at 350 nm and emission set at 420 nm. The rate of appearance of Abz-AG was a measure of proteolytic activity in the samples. The protease activity was expressed as RFU (relative fluorescence units·min^−1).
As described in Example 1, the stability of thermolysin variants was measured by determining the AGLA activity before and after incubation in the presence of TIDE® 2× heavy duty liquid (HDL) detergent at an elevated temperature. The tables contain the relative stability values compared to wild-type thermolysin, which is the quotient of the variant residual activity divided by the wild-type residual activity. A value greater than one indicates higher stability in the presence of detergent. […]

B1: T049M: single-substitution thermolysin variant (SEQ ID NO:3 numbering) (protein, listed as Geobacillus caldoproteolyticus)
chain: ITGTSTVGVGRGVLGDQKNINTTYSTYYYLQDNTRGNGIFTYDAKYRTMLPGSLWADADNQFFASYDAPAVDAHYYAGVTYDYYKNVHNRLSYDGNNAAIRSSVHYSQGYNNAFWNGSQMVYGDGDGQTFIPLSGGIDVVAHELTHAVTDYTAGLIYQNESGAINEAISDIFGTLVEFYANKNPDWEIGEDVYTPGISGDSLRSMSDPAKYGDPDHYSKRYTGTQDNGGVHINSGIINKAAYLISQGGTHYGVSVVGIGRDKLGKIFYRALTQYLTPTSNFSQLRAAAVQSATDLYGSTSQEVASVKQAFDAVGVK
PI (relative stability), 25% TIDE 2X with DTPA: 1.02

B2: I156H: single-substitution thermolysin variant (SEQ ID NO:3 numbering) (protein, listed as Geobacillus caldoproteolyticus)
chain: ITGTSTVGVGRGVLGDQKNINTTYSTYYYLQDNTRGNGIFTYDAKYRTTLPGSLWADADNQFFASYDAPAVDAHYYAGVTYDYYKNVHNRLSYDGNNAAIRSSVHYSQGYNNAFWNGSQMVYGDGDGQTFIPLSGGIDVVAHELTHAVTDYTAGLHYQNESGAINEAISDIFGTLVEFYANKNPDWEIGEDVYTPGISGDSLRSMSDPAKYGDPDHYSKRYTGTQDNGGVHINSGIINKAAYLISQGGTHYGVSVVGIGRDKLGKIFYRALTQYLTPTSNFSQLRAAAVQSATDLYGSTSQEVASVKQAFDAVGVK
PI (relative stability), 25% TIDE 2X with DTPA: 1.21

B3: G196H: single-substitution thermolysin variant (SEQ ID NO:3 numbering) (protein, listed as Geobacillus caldoproteolyticus)
chain: ITGTSTVGVGRGVLGDQKNINTTYSTYYYLQDNTRGNGIFTYDAKYRTTLPGSLWADADNQFFASYDAPAVDAHYYAGVTYDYYKNVHNRLSYDGNNAAIRSSVHYSQGYNNAFWNGSQMVYGDGDGQTFIPLSGGIDVVAHELTHAVTDYTAGLIYQNESGAINEAISDIFGTLVEFYANKNPDWEIGEDVYTPHISGDSLRSMSDPAKYGDPDHYSKRYTGTQDNGGVHINSGIINKAAYLISQGGTHYGVSVVGIGRDKLGKIFYRALTQYLTPTSNFSQLRAAAVQSATDLYGSTSQEVASVKQAFDAVGVK
PI (relative stability), 25% TIDE 2X with DTPA: 1.19

B4: A056Y: single-substitution thermolysin variant (SEQ ID NO:3 numbering) (protein, listed as Geobacillus caldoproteolyticus)
chain: ITGTSTVGVGRGVLGDQKNINTTYSTYYYLQDNTRGNGIFTYDAKYRTTLPGSLWYDADNQFFASYDAPAVDAHYYAGVTYDYYKNVHNRLSYDGNNAAIRSSVHYSQGYNNAFWNGSQMVYGDGDGQTFIPLSGGIDVVAHELTHAVTDYTAGLIYQNESGAINEAISDIFGTLVEFYANKNPDWEIGEDVYTPGISGDSLRSMSDPAKYGDPDHYSKRYTGTQDNGGVHINSGIINKAAYLISQGGTHYGVSVVGIGRDKLGKIFYRALTQYLTPTSNFSQLRAAAVQSATDLYGSTSQEVASVKQAFDAVGVK
PI (relative stability), 25% TIDE 2X with DTPA: 1.05

B5: A056R: single-substitution thermolysin variant (SEQ ID NO:3 numbering) (protein, listed as Geobacillus caldoproteolyticus)
chain: ITGTSTVGVGRGVLGDQKNINTTYSTYYYLQDNTRGNGIFTYDAKYRTTLPGSLWRDADNQFFASYDAPAVDAHYYAGVTYDYYKNVHNRLSYDGNNAAIRSSVHYSQGYNNAFWNGSQMVYGDGDGQTFIPLSGGIDVVAHELTHAVTDYTAGLIYQNESGAINEAISDIFGTLVEFYANKNPDWEIGEDVYTPGISGDSLRSMSDPAKYGDPDHYSKRYTGTQDNGGVHINSGIINKAAYLISQGGTHYGVSVVGIGRDKLGKIFYRALTQYLTPTSNFSQLRAAAVQSATDLYGSTSQEVASVKQAFDAVGVK
PI (relative stability), 25% TIDE 2X with DTPA: 1.10

B6: S065T: single-substitution thermolysin variant (SEQ ID NO:3 numbering) (protein, listed as Geobacillus caldoproteolyticus)
chain: ITGTSTVGVGRGVLGDQKNINTTYSTYYYLQDNTRGNGIFTYDAKYRTTLPGSLWADADNQFFATYDAPAVDAHYYAGVTYDYYKNVHNRLSYDGNNAAIRSSVHYSQGYNNAFWNGSQMVYGDGDGQTFIPLSGGIDVVAHELTHAVTDYTAGLIYQNESGAINEAISDIFGTLVEFYANKNPDWEIGEDVYTPGISGDSLRSMSDPAKYGDPDHYSKRYTGTQDNGGVHINSGIINKAAYLISQGGTHYGVSVVGIGRDKLGKIFYRALTQYLTPTSNFSQLRAAAVQSATDLYGSTSQEVASVKQAFDAVGVK
PI (relative stability), 25% TIDE 2X with DTPA: 1.04

B7: A058S: single-substitution thermolysin variant (SEQ ID NO:3 numbering) (protein, listed as Geobacillus caldoproteolyticus)
chain: ITGTSTVGVGRGVLGDQKNINTTYSTYYYLQDNTRGNGIFTYDAKYRTTLPGSLWADSDNQFFASYDAPAVDAHYYAGVTYDYYKNVHNRLSYDGNNAAIRSSVHYSQGYNNAFWNGSQMVYGDGDGQTFIPLSGGIDVVAHELTHAVTDYTAGLIYQNESGAINEAISDIFGTLVEFYANKNPDWEIGEDVYTPGISGDSLRSMSDPAKYGDPDHYSKRYTGTQDNGGVHINSGIINKAAYLISQGGTHYGVSVVGIGRDKLGKIFYRALTQYLTPTSNFSQLRAAAVQSATDLYGSTSQEVASVKQAFDAVGVK
PI (relative stability), 25% TIDE 2X with DTPA: 1.02

B8: I156K: single-substitution thermolysin variant (SEQ ID NO:3 numbering) (protein, listed as Geobacillus caldoproteolyticus)
chain: ITGTSTVGVGRGVLGDQKNINTTYSTYYYLQDNTRGNGIFTYDAKYRTTLPGSLWADADNQFFASYDAPAVDAHYYAGVTYDYYKNVHNRLSYDGNNAAIRSSVHYSQGYNNAFWNGSQMVYGDGDGQTFIPLSGGIDVVAHELTHAVTDYTAGLKYQNESGAINEAISDIFGTLVEFYANKNPDWEIGEDVYTPGISGDSLRSMSDPAKYGDPDHYSKRYTGTQDNGGVHINSGIINKAAYLISQGGTHYGVSVVGIGRDKLGKIFYRALTQYLTPTSNFSQLRAAAVQSATDLYGSTSQEVASVKQAFDAVGVK
PI (relative stability), 25% TIDE 2X with DTPA: 1.07

B9: G196D: single-substitution thermolysin variant (SEQ ID NO:3 numbering) (protein, listed as Geobacillus caldoproteolyticus)
chain: ITGTSTVGVGRGVLGDQKNINTTYSTYYYLQDNTRGNGIFTYDAKYRTTLPGSLWADADNQFFASYDAPAVDAHYYAGVTYDYYKNVHNRLSYDGNNAAIRSSVHYSQGYNNAFWNGSQMVYGDGDGQTFIPLSGGIDVVAHELTHAVTDYTAGLIYQNESGAINEAISDIFGTLVEFYANKNPDWEIGEDVYTPDISGDSLRSMSDPAKYGDPDHYSKRYTGTQDNGGVHINSGIINKAAYLISQGGTHYGVSVVGIGRDKLGKIFYRALTQYLTPTSNFSQLRAAAVQSATDLYGSTSQEVASVKQAFDAVGVK
PI (relative stability), 25% TIDE 2X with DTPA: 1.02

B10: S065I: single-substitution thermolysin variant (SEQ ID NO:3 numbering) (protein, listed as Geobacillus caldoproteolyticus)
chain: ITGTSTVGVGRGVLGDQKNINTTYSTYYYLQDNTRGNGIFTYDAKYRTTLPGSLWADADNQFFAIYDAPAVDAHYYAGVTYDYYKNVHNRLSYDGNNAAIRSSVHYSQGYNNAFWNGSQMVYGDGDGQTFIPLSGGIDVVAHELTHAVTDYTAGLIYQNESGAINEAISDIFGTLVEFYANKNPDWEIGEDVYTPGISGDSLRSMSDPAKYGDPDHYSKRYTGTQDNGGVHINSGIINKAAYLISQGGTHYGVSVVGIGRDKLGKIFYRALTQYLTPTSNFSQLRAAAVQSATDLYGSTSQEVASVKQAFDAVGVK
PI (relative stability), 25% TIDE 2X with DTPA: 1.05
